Measurements taken from article PMC4793217.

T1: ME31B, endogenous (D. melanogaster (endogenous in embryos)) (UniProt P23128)
T1 sequence: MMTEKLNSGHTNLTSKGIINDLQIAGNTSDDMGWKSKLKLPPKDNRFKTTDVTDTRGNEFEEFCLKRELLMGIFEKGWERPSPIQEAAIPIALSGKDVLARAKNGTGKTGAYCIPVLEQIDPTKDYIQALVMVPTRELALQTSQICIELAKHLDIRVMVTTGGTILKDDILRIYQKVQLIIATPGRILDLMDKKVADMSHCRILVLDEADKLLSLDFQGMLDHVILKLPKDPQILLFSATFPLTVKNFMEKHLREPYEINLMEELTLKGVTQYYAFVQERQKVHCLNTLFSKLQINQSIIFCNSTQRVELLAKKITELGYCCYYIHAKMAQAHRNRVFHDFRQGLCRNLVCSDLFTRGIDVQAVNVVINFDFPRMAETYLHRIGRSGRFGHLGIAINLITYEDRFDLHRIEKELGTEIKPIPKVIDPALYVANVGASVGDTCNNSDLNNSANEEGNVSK

B1: anti-IMP (P054) synthetic Fab (Fab, V domains shown)
VH: EVQLVESGGGLVQPGGSLRLSCAASGFNLSYSYIHWVRQAPGKGLEWVASIYSYYSYTYYADSVKGRFTISADTSKNTAYLQMNSLRAEDTAVYYCARWWVVYGMDYWGQGTLVTVSS
VL: DIQMTQSPSSLSASVGDRVTITCRASQSVSSAVAWYQQKPGKAPKLLIYSASSLYSGVPSRFSGSRSGTDFTLTISSLQPEDFATYYCQQHWWLITFGQGTKVEIK
B2: anti-ME31B (P012) synthetic Fab (Fab, V domains shown)
VH: EVQLVESGGGLVQPGGSLRLSCAASGFNLSYSSIHWVRQAPGKGLEWVASIYSYYGYTYYADSVKGRFTISADTSKNTAYLQMNSLRAEDTAVYYCARWYWYGWALDYWGQGTLVTVSS
VL: DIQMTQSPSSLSASVGDRVTITCRASQSVSSAVAWYQQKPGKAPKLLIYSASSLYSGVPSRFSGSRSGTDFTLTISSLQPEDFATYYCQQGPYPYYGLITFGQGTKVEIK

Key:
[1] = molecular target: IMP, endogenous (D. melanogaster (endogenous in embryos)); assay: co-IP
[2] = molecular target: T1, ME31B, endogenous (D. melanogaster (endogenous in embryos)); assay: co-IP

Binder | percent of IP input precipitated [1] [%] | percent of IP input precipitated [2] [%]
B1 | 1 to 10 | –
B2 | – | < 1
